Results taken from patent US20250114463A1, “LIVER-TARGETED DRUG AND USE THEREOF” (HANMI PHARM. CO., LTD., priority 2021, published 2025).
Bridges are numbered along the chain shown (N, C = ends). Where no end group is shown, it is not given here. [ ]: non-standard residue; d: D form. The star is where a group is joined. Acetyl(2-(4-imidazolyl)) = O=C(Cc1c[nH]cn1)*; Aib = CC(C)(N)C(=O)O

B1: triple agonist of SEQ ID NO: 2 (peptide)
peptide: HXQGTFTSDVSSYLDGQAQKEFIAWLVKGC
HELM: PEPTIDE1{H.[Aib].Q.G.T.F.T.S.D.V.S.S.Y.L.D.G.Q.A.Q.K.E.F.I.A.W.L.V.K.G.C.[am]}$$$$V2.0; N-terminus assumed
SMILES: CC[C@H](C)[C@H](NC(=O)[C@H](Cc1ccccc1)NC(=O)[C@H](CCC(=O)O)NC(=O)[C@H](CCCCN)NC(=O)[C@H](CCC(N)=O)NC(=O)[C@H](C)NC(=O)[C@H](CCC(N)=O)NC(=O)CNC(=O)[C@H](CC(=O)O)NC(=O)[C@H](CC(C)C)NC(=O)[C@H](Cc1ccc(O)cc1)NC(=O)[C@H](CO)NC(=O)[C@H](CO)NC(=O)[C@@H](NC(=O)[C@H](CC(=O)O)NC(=O)[C@H](CO)NC(=O)[C@@H](NC(=O)[C@H](Cc1ccccc1)NC(=O)[C@@H](NC(=O)CNC(=O)[C@H](CCC(N)=O)NC(=O)C(C)(C)NC(=O)[C@@H](N)Cc1c[nH]cn1)[C@@H](C)O)[C@@H](C)O)C(C)C)C(=O)N[C@@H](C)C(=O)N[C@@H](Cc1c[nH]c2ccccc12)C(=O)N[C@@H](CC(C)C)C(=O)N[C@H](C(=O)N[C@@H](CCCCN)C(=O)NCC(=O)N[C@@H](CS)C(N)=O)C(C)C

molecular target: human GLP-1 receptor (human, UniProt P43220 24-463); test: cell-based or functional assay

Binder	in vitro Activity Compared to Native Peptide (%), vs GLP-1
[Acetyl(2-(4-imidazolyl))]GEGTFTSDLSKYLDSRRQQLFVQWLKAGGPSSGAPPPSHG-NH2 [triple agonist of SEQ ID NO: 11]	1.4%
[Acetyl(2-(4-imidazolyl))]GEGTFISDLSKYMDEQAVQLFVEWLMAGGPSSGAPPPSHG-NH2 [triple agonist of SEQ ID NO: 12]	0.4%
[Acetyl(2-(4-imidazolyl))]GEGTFISDYSIQLDEIAVQDFVEWLLAQKPSSGAPPPSHG-NH2 [triple agonist of SEQ ID NO: 13]	< 0.1%
B1	5.9%
[Acetyl(2-(4-imidazolyl))]GQGTFTSDYSIQLDEIAVRDFVEWLKNGGPSSGAPPPSHG-NH2 [triple agonist of SEQ ID NO: 14]	28%
[Acetyl(2-(4-imidazolyl))]GQGTFTSDLSKQMDSEAQQLFIEWLKNGGPSSGAPPPSHG-NH2 [triple agonist of SEQ ID NO: 16]	2.1%
[Acetyl(2-(4-imidazolyl))]GQGTFTSDLSKQMDEERAREFIEWLLAQKPSSGAPPPSHG-NH2 [triple agonist of SEQ ID NO: 17]	0.2%
[Acetyl(2-(4-imidazolyl))]GQGTFTSDLSKQMDSERAREFIEWLKNTGPSSGAPPPSHG-NH2 [triple agonist of SEQ ID NO: 18]	< 0.1%
[Acetyl(2-(4-imidazolyl))]GQGTFTSDLSIQYDSEHQRDFIEWLKDTGPSSGAPPPSHG-NH2 [triple agonist of SEQ ID NO: 19]	< 0.1%
[Acetyl(2-(4-imidazolyl))]GQGTFTSDLSIQYEEEAQQDFVEWLKDTGPSSGAPPPSHG-NH2 [triple agonist of SEQ ID NO: 20]	< 0.1%
Y[Aib]QGTFTSDYSKYLDECRAKEFVQWLLDHHPSSGQPPPS-NH2 (bridge 16-20; also: ring type not given here) [triple agonist of SEQ ID NO: 21]	17.8%
Y[Aib]QGTFTSDYSKCLDEKRAKEFVQWLLDHHPSSGQPPPS-NH2 (bridge 16-20) [triple agonist of SEQ ID NO: 22]	20.1%

molecular target: human GCG receptor (human, UniProt P47871 26-477); test: cell-based or functional assay
Sequence (P47871 26-477): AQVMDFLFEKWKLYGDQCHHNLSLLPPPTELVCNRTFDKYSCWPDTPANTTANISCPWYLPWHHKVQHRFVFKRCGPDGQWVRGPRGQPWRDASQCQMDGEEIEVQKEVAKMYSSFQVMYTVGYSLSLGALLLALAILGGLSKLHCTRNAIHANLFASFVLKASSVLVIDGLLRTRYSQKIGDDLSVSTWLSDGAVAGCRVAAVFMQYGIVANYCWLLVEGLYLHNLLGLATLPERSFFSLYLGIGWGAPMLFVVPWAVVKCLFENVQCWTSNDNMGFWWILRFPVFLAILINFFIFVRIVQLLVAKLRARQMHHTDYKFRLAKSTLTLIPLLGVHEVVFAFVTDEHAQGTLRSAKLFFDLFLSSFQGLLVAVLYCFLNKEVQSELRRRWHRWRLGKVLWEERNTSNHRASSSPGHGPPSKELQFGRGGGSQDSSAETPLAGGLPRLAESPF

Binder	in vitro Activity Compared to Native Peptide (%), vs Glucagon
[Acetyl(2-(4-imidazolyl))]GEGTFTSDLSKYLDSRRQQLFVQWLKAGGPSSGAPPPSHG-NH2 [triple agonist of SEQ ID NO: 11]	< 0.1%
[Acetyl(2-(4-imidazolyl))]GEGTFISDLSKYMDEQAVQLFVEWLMAGGPSSGAPPPSHG-NH2 [triple agonist of SEQ ID NO: 12]	< 0.1%
[Acetyl(2-(4-imidazolyl))]GEGTFISDYSIQLDEIAVQDFVEWLLAQKPSSGAPPPSHG-NH2 [triple agonist of SEQ ID NO: 13]	< 0.1%
B1	< 0.1%
[Acetyl(2-(4-imidazolyl))]GQGTFTSDYSIQLDEIAVRDFVEWLKNGGPSSGAPPPSHG-NH2 [triple agonist of SEQ ID NO: 14]	< 0.1%
[Acetyl(2-(4-imidazolyl))]GQGTFTSDLSKQMDSEAQQLFIEWLKNGGPSSGAPPPSHG-NH2 [triple agonist of SEQ ID NO: 16]	< 0.1%
[Acetyl(2-(4-imidazolyl))]GQGTFTSDLSKQMDEERAREFIEWLLAQKPSSGAPPPSHG-NH2 [triple agonist of SEQ ID NO: 17]	< 0.1%
[Acetyl(2-(4-imidazolyl))]GQGTFTSDLSKQMDSERAREFIEWLKNTGPSSGAPPPSHG-NH2 [triple agonist of SEQ ID NO: 18]	< 0.1%
[Acetyl(2-(4-imidazolyl))]GQGTFTSDLSIQYDSEHQRDFIEWLKDTGPSSGAPPPSHG-NH2 [triple agonist of SEQ ID NO: 19]	< 0.1%
[Acetyl(2-(4-imidazolyl))]GQGTFTSDLSIQYEEEAQQDFVEWLKDTGPSSGAPPPSHG-NH2 [triple agonist of SEQ ID NO: 20]	< 0.1%
Y[Aib]QGTFTSDYSKYLDECRAKEFVQWLLDHHPSSGQPPPS-NH2 (bridge 16-20; also: ring type not given here) [triple agonist of SEQ ID NO: 21]	267%
Y[Aib]QGTFTSDYSKCLDEKRAKEFVQWLLDHHPSSGQPPPS-NH2 (bridge 16-20) [triple agonist of SEQ ID NO: 22]	140%

molecular target: T1, human GIP receptor (human, UniProt P48546 22-466); test: cell-based or functional assay
T1 sequence (looked up): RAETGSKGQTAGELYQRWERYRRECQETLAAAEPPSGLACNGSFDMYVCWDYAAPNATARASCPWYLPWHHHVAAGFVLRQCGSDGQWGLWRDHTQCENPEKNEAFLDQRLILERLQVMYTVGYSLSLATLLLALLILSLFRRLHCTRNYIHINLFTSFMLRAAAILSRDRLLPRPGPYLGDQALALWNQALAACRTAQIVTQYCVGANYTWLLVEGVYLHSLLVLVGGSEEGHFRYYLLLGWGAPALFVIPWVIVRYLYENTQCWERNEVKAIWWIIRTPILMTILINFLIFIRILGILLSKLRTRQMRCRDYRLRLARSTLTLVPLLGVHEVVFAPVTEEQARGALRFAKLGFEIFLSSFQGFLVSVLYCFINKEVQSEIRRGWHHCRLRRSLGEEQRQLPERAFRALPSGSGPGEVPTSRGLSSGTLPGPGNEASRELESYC

Binder	in vitro Activity Compared to Native Peptide (%), vs GIP
[Acetyl(2-(4-imidazolyl))]GEGTFTSDLSKYLDSRRQQLFVQWLKAGGPSSGAPPPSHG-NH2 [triple agonist of SEQ ID NO: 11]	< 0.1%
[Acetyl(2-(4-imidazolyl))]GEGTFISDLSKYMDEQAVQLFVEWLMAGGPSSGAPPPSHG-NH2 [triple agonist of SEQ ID NO: 12]	< 0.1%
[Acetyl(2-(4-imidazolyl))]GEGTFISDYSIQLDEIAVQDFVEWLLAQKPSSGAPPPSHG-NH2 [triple agonist of SEQ ID NO: 13]	< 0.1%
B1	< 0.1%
[Acetyl(2-(4-imidazolyl))]GQGTFTSDYSIQLDEIAVRDFVEWLKNGGPSSGAPPPSHG-NH2 [triple agonist of SEQ ID NO: 14]	< 0.1%
[Acetyl(2-(4-imidazolyl))]GQGTFTSDLSKQMDSEAQQLFIEWLKNGGPSSGAPPPSHG-NH2 [triple agonist of SEQ ID NO: 16]	< 0.1%
[Acetyl(2-(4-imidazolyl))]GQGTFTSDLSKQMDEERAREFIEWLLAQKPSSGAPPPSHG-NH2 [triple agonist of SEQ ID NO: 17]	< 0.1%
[Acetyl(2-(4-imidazolyl))]GQGTFTSDLSKQMDSERAREFIEWLKNTGPSSGAPPPSHG-NH2 [triple agonist of SEQ ID NO: 18]	< 0.1%
[Acetyl(2-(4-imidazolyl))]GQGTFTSDLSIQYDSEHQRDFIEWLKDTGPSSGAPPPSHG-NH2 [triple agonist of SEQ ID NO: 19]	< 0.1%
[Acetyl(2-(4-imidazolyl))]GQGTFTSDLSIQYEEEAQQDFVEWLKDTGPSSGAPPPSHG-NH2 [triple agonist of SEQ ID NO: 20]	< 0.1%
Y[Aib]QGTFTSDYSKYLDECRAKEFVQWLLDHHPSSGQPPPS-NH2 (bridge 16-20; also: ring type not given here) [triple agonist of SEQ ID NO: 21]	22.7%
Y[Aib]QGTFTSDYSKCLDEKRAKEFVQWLLDHHPSSGQPPPS-NH2 (bridge 16-20) [triple agonist of SEQ ID NO: 22]	59.7%
